Experimental data as given in patent US20240288416.

What was measured:
substrate 1 (S1) = target: T1, substrate 1 (S1)
T1 chain: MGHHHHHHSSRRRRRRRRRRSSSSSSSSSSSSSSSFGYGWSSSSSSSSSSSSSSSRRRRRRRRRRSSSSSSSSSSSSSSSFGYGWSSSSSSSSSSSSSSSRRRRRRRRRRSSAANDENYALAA

[1] = target: green fluorescent protein (GFP) carrying an ssrA tag at the C-terminus

B1: Valosin-containing protein-like ATPase of Thermoplasma acidophilum (protein)
chain: MESNNGIILRVAEANSTDPGMSRVRLDESSRRLLDAEIGDVVEIEKVRKTVGRVYRARPEDENKGIVRIDSVMRNNCGASIGDKVKVRKVRTEIAKKVTLAPIIRKDQRLKFGEGIEEYVQRALIRRPMLEQDNISVPGLTLAGQTGLLFKVVKTLPSKVPVEIGEETKIEIREEPASEVLEEVSRISYEDIGGLSEQLGKIREMIELPLKHPELFERLGITPPKGVILYGPPGTGKTLIARAVANESGANFLSINGPEIMSKYYGQSEQKLREIFSKAEETAPSIIFIDEIDSIAPKREEVQGEVERRVVAQLLTLMDGMKERGHVIVIGATNRIDAIDPALRRPGRFDREIEIGVPDRNGRKEILMIHTRNMPLGMSEEEKNKFLEEMADYTYGFVGADLAALVRESAMNALRRYLPEIDLDKPIPTEILEKMVVTEDDFKNALKSIEPSSLREVMVEVPNVHWDDIGGLEDVKREIKETVELPLLKPDVFKRLGIRPSKGFLLYGPPGVGKTLLAKAVATESNANFISIKGPEVLSKWVGESEKAIREIFKKAKQVAPAIVFLDEIDSIAPRRGTTSDSGVTERIVNQLLTSLDGIEVMNGVVVIGATNRPDIMDPALLRAGRFDKLIYIPPPDKEARLSILKVHTKNMPLAPDVDLNDIAQRTEGYVGADLENLCREAGMNAYRENPDATSVSQKNFLDALKTIRPSVDEEVIKFYRTLSETMSKSVSERRKQLQDQGLYL
- Ires % during VAT-assisted translocation through the inactive proteasome-nanopore (VAT 20.0 µM, ATP 2.0 mM) (substrate 1 (S1)): Ires %=83.81±0.11
- average dwell time of VAT-assisted translocation events (inactive proteasome-nanopore, ATP 2.0 mM) (substrate 1 (S1)): average dwell time is 5.8±3.9 ms
- average dwell time of GFP blockades at 6.0 mM ATP [1]: decreased 10-fold to 2.4±1.7 ms
- average dwell time of current blockades (inactive proteasome-nanopore, VAT, ATP 2.0 mM) [1]: average dwell time is 22.1±20.2 ms
